Source: the RNAGym collection of RNA variant scans (doi:10.1073/pnas.2313332121)
Variants at the floor of the assay were thinned out.

B1: TPR 5TU (parent)
chain: GGAUCUUCUCGAUCUAACAAAAAAGACAAAUCUGCCACAAAGCUUGAGAGCAUCUUCGGAUGCAGAGGCGGCAGCCUUCGGUGGCGCGAUAGCGCCAACGUUCUCAACUAUGACACGCAAAACGCGUGCUCCGUUGAAUGGAGUUUAUCAUG

Variants of: B1
Test: polymerase ribozyme fitness, log enrichment relative to wild type (log ratio); higher = more active; in vitro selection for triplet polymerase activity
Outline: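 Input and output libraries were sequenced on Illumina after a single in vitro selection round, run in triplicate on PCR-built, transcribed mutant libraries of each subunit of a heterodimeric triplet polymerase ribozyme. Selection annealed libraries to a biotinylated primer, the partner subunit and triplets, incubated them frozen at −7 °C, then gel-excised extended constructs for streptavidin-bead capture and RT-PCR. Genotypes with ≥10 input reads and ≥1 read per output were kept. Fitness is the logarithm, taken in base 2, of genotype enrichment divided by wild-type enrichment, using inverse-variance-weighted replicate averages.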

Point of comparison: A37G G94A, “polymerase ribozyme fitness (log ratio)” value -1.49. Against it:
- A37C A40C A66U C75G G94U A120G C131G G141A — lower, ≤ -4.2
- C36U G141U A142C — lower, ≤ -4.2
- C36U G71A G94A — lower, ≤ -4.2
- A37C A115U — higher, -1.16
- C36U A52G C69U C85U U109G C118A — lower, -3.73
- C38A A73C C75G A120C — lower, ≤ -4.2
- A37C G62U G86U G100C A107G — lower, ≤ -4.2
- A37C A41C U53G G59A G84A C103A U145A — lower, ≤ -4.2
- C38G C85U A89C — lower, -1.86
- A37C A49C C57G C75U A137U G141C — lower, ≤ -4.2
- A37G G124A — lower, -2.19
- C36U C51G U55A G67A C93U — lower, ≤ -4.2
- C36U U134G U148A — lower, -4.04
- A37G G58A G92C G140U — lower, ≤ -4.2
- A37G A39U G58C G62A C63U A64U U77A C87G C103G A150U — lower, ≤ -4.2
- A37G U55G C85G — lower, -3.49
- C36G U44G G71U C96A C108G G140C — lower, ≤ -4.2
- A37C C95U G141C — lower, -1.7
- A37U G59C C149G — lower, ≤ -4.2
- C36U A142G — lower, -2.16
- C36U A39U — lower, -2.71
- A37C G83U — higher, -0.441
- C38A C76A G92U G136A G152U — lower, ≤ -4.2
- A37C A60C C69U C85A U146G — lower, -3.76
- A37C U56A U90A C103G A121U C123U G141C — lower, ≤ -4.2
- A37C A40U G83A C93G A142G — lower, ≤ -4.2
- C38A U55A C85A — lower, -2.66
- A37G U45G C57G C95U — lower, -3.33
- A37U A66G C149U G152C — lower, ≤ -4.2
- A37C C103G — lower, -3.6
- A37C U55G G94A — higher, 0.0696
- A37G A39C C87A C116U G136A — lower, ≤ -4.2
- A37G C93U G117A G128A — lower, -4.18
- A37G U55A A66G C75U C85A A122U — lower, ≤ -4.2
- C38G C54G C76G A107U U146G — lower, ≤ -4.2
- A37G C38A C43U C54G G80U U104G — lower, ≤ -4.2
- A37U C75U G83A A98U — lower, -2.88
- A37U A47C C85U C95U A113C U148A G152U — lower, ≤ -4.2
- A37C A97U — higher, -0.373
- A37U U101G U134G G141A — lower, -4.08
- A37G C93U — lower, -3.38
- A37C G50U G59U G86U — lower, -2.65
- C38G C54A G74U A106U G140U — lower, ≤ -4.2
- A37G A52C A97C — lower, -3.67
- A37C C93U — within 0.2 log units, -1.64
- A37C C93A — lower, -2.8
- C36U G59A U82G A97U — within 0.2 log units, -1.3
- C38A C118U A120C G141A — higher, -0.525
- A37G A66U C96A C103U — lower, ≤ -4.2
- A37C G83A A122U C131U U134C — higher, 0.318
- A37U G86U — lower, -3.44
- A37U C54U C93U — lower, -2.44
- A37C C95U — lower, -2.04
- A37C C95G — lower, -2.69
- A37C A49C G59C G83C C95A A122U G143U A150G — lower, ≤ -4.2
- A37U G80C G81C U102A A110U C118G A120U G133U — lower, ≤ -4.2
- C38A C43A U55A C87U G117A — lower, ≤ -4.2
- C36U G50U C54U C99U — lower, -4.14
- C36U A52G G70U G84A — lower, -2.84
- A37C A40C G48C G74A G94A G126C G133A G136A A150U — lower, ≤ -4.2
- C36U U44A A122C — lower, -4.15
- A37C A49C C54A U78G C93U G124A — lower, ≤ -4.2
- C36U C79A C87U A115C A122C C131G — lower, ≤ -4.2
- C38A G48C G71U — lower, ≤ -4.2
- A37C A64U A66G C85A A107G — lower, ≤ -4.2
- C38G A52G G62A U135G — lower, ≤ -4.2
- A37G C95G C114U A119U A120G — lower, ≤ -4.2
- A37U C38G A97C — lower, -1.69
- C36U G42A C76U G143A — lower, ≤ -4.2
- A37U C54A C57A C93U — lower, -3.28
- A37U A115C A119C — lower, -2.95
- A37C U55A C96U A113U A137U — lower, -4.18
- A37C A60C G67C C76G — lower, -3.82
- A37G C95A U127G — lower, -4.15
- A37U U61A C85U — lower, -2.89
- A37C C43U G84A C114A U130G U151G — lower, ≤ -4.2
- C36G U146G — lower, -3.97
- A37C G84A U101G G126C U135C — lower, -3.6
- C36U C99U U145A — within 0.2 log units, -1.47
- C38G G71A U82G A107U — lower, ≤ -4.2
- A37U U55G A60G C85G A107C C131U — lower, ≤ -4.2
- A37C A52U C96A — lower, -2.87
